The record followed here is US20260242436A1 (HANMI PHARM, published 2026).

In assay [1] the target is T1, interleukin-2 beta receptor (SYMANSIS, #4122H) to which a human immunoglobulin Fc region was linked (UniProt P14784 27-239, limits assumed).
T1 construct: Bought receptor-Fc, captured on anti-human immunoglobulin antibody; also called IL-2Rβ; CD122; not shown: human immunoglobulin Fc region
T1 sequence (looked up): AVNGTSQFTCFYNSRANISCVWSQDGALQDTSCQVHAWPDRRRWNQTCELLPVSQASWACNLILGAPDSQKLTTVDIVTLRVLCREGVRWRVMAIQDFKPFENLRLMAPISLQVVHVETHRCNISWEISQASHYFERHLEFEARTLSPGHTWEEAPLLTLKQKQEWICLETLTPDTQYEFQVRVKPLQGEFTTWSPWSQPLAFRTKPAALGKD
In words: SPR (Biacore T200); receptor-Fc captured on anti-human Ig CM5 chip, analog flowed; relative to analog 1 = 100%. As for the experimental part:
(§1) In order to measure the binding affinities of the interleukin-2 analogs obtained in Example 4 for each of interleukin-2 alpha and beta receptors, surface plasmon resonance (SPR, BIACORE T200, GE Healthcare) was used. The binding affinities of the prepared analogs for the alpha and beta receptors were measured, and the binding affinity of each of the prepared analogs was compared with that of interleukin-2 analog 1 (aldesleukin).
(§2) First, an anti-human immunoglobulin antibody (Abcam, #ab97221) was immobilized to a CM5 chip (GE healthcare) to about 5,000 resonance unit (RU) through amine coupling, and then the interleukin-2 alpha receptor ([…], #4102H) or interleukin-2 beta receptor ([…], #4122H), to each of which a human immunoglobulin Fc region was linked, was bound to the immunoglobulin antibody using an antigen-antibody binding reaction and thus finally immobilized. Thereafter, the recombinant interleukin-2 analog prepared above was diluted with HBS-P+ buffer (Cytiva, BR100671) to various concentrations by serial dilution, and the diluted samples were allowed to flow through CM5 chips, to which the interleukin-2 receptors were finally immobilized, to measure the binding affinity of each interleukin-2 receptor. […] Upon the completion of the measurement, the binding affinity of the receptor was evaluated according to the 1:1 binding fitting model in the Biaevaluation program.

Assay [2] deals with T2, interleukin-2 alpha receptor (SYMANSIS, #4102H) to which a human immunoglobulin Fc region was linked (UniProt P01589 22-213, limits assumed).
T2 construct: Bought receptor-Fc, captured on anti-human immunoglobulin antibody; also called IL-2Rα; CD25; not shown: human immunoglobulin Fc region
T2 sequence (looked up): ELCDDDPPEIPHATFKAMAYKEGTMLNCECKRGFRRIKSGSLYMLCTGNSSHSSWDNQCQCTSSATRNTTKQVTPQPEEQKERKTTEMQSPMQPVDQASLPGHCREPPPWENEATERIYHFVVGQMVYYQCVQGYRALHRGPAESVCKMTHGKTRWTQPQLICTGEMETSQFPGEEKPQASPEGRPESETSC
The assay can be described thus: SPR (Biacore T200); receptor-Fc captured on anti-human Ig CM5 chip.

The target of assay [3] is T2, interleukin-2 alpha receptor (SYMANSIS, …). In words: SPR (Biacore T200); receptor-Fc captured on anti-human Ig CM5 chip, analog flowed; relative to analog 1 = 100%. Here is the method:
as §1, §2

Changes are numbered by the printed parent chain.

B1: interleukin-2 analog 20 (ligand)
chain: PTSSSTKKTQLQLEHLLLDLQMILNGINNYKNPKLTAMLTKKFYMPKKATELKHLQCLEEELKPLEEVLNLAQSKNFHLRPRDVVSNINVFVLELKGSETTFMCEYADETATIVEFLNRWITFSQSIISTLT
As to B1, the “Relative binding affinity (%)” value in assay [1] is 156%. Moreover, the binding result in assay [2] is “no binding”.

B2: interleukin-2 analog 99 (ligand)
chain: B1 chain with K41F, L79F, R80E, V84L
For B2, the “Relative binding affinity (%)” value was 1510% in assay [1] and 19.9% in assay [3].

B3: interleukin-2 analog 104 (ligand)
chain: B1 chain with L17R, Q21E, A37R, K41F, E60D, L79F, R80E
In the case of B3, the “Relative binding affinity (%)” value in assay [1] is 25400%; in assay [3] it was 122%.

B4: interleukin-2 analog 15 (ligand)
chain: B1 chain with D83E, V84L, V85I, F91I
For the molecule B4, the “Relative binding affinity (%)” value in assay [1] was determined as 98.1%. For the same molecule, the binding result in assay [2] is “no binding”.

B5: interleukin-2 analog 96 (ligand)
chain: B1 chain with A37R, K41F, V68G, Q73A, L79F, R80E
For B5, the entries for the “Relative binding affinity (%)” value in assay [1] and in assay [3] were 229% and 14.9%, respectively.

B6: interleukin-2 analog 19 (ligand)
chain: B1 chain with R80D, V84L, V85I
For B6, the “Relative binding affinity (%)” value in assay [1] was found to be 455%. In assay [2], the binding result was “no binding”.

B7: interleukin-2 analog 102 (ligand)
chain: B1 chain with A37R, K41F, L79F, R80E, F91I
B7: the entries for the “Relative binding affinity (%)” value in assay [1] and in assay [3] were 4450% and 151%, respectively.

B8: interleukin-2 analog 12 (ligand)
chain: B1 chain with V84L, V85I, F91I
With B8, the “Relative binding affinity (%)” value in assay [1] is 166%. Also, in assay [2], the binding result is listed as “no binding”.

B9: interleukin-2 analog 53 (ligand)
chain: B1 chain with L79F, R80D, D83E, V84L, V85I
As for B9, the “Relative binding affinity (%)” value in assay [1] was 691%. In assay [2], the binding result is recorded as “no binding”.

B10: interleukin-2 analog 21 (ligand)
chain: B1 chain with L79F, R80D
Take B10: in assay [1], the “Relative binding affinity (%)” value worked out at 14100%. Further, the binding result in assay [2] is on record as “no binding”.

B11: interleukin-2 analog 92 (ligand)
chain: B1 chain with A37R, K41F, L79F, R80E, V90T
With B11, the “Relative binding affinity (%)” value in assay [1] amounted to 1510%; in assay [3] it was 97.3%.

B12: interleukin-2 analog 97 (ligand)
chain: B1 chain with K41F, L79F, R80D, V84L, V85I
On to B12, for which the “Relative binding affinity (%)” value in assay [1] turned out to be 3020%; in assay [3], 18.8%.

B13: interleukin-2 analog 91 (ligand)
chain: B1 chain with A37R, K41F, E60Q, L79F, R80E
With B13, the “Relative binding affinity (%)” value in assay [1] is 7360%; in assay [3], 7.9%.

B14: interleukin-2 analog 35 (ligand)
chain: B1 chain with K41F, V84L, V85I, F91I, L93F, L95F
Turning to B14, the entries for the “Relative binding affinity (%)” value in assay [1] and in assay [3] were 233% and 31.7%, respectively.

B15: interleukin-2 analog 90 (ligand)
chain: B1 chain with A37R, K41W, L79F, R80E
As to B15, the “Relative binding affinity (%)” value came out at 12800% in assay [1] and 98.4% in assay [3].

B16: interleukin-2 analog 93 (ligand)
chain: B1 chain with A37R, K41F, L79F, R80E, D83E, V90T
B16: the “Relative binding affinity (%)” value in assay [1] was 697%; in assay [3], 92.8%.

B17: interleukin-2 analog 88 (ligand)
chain: B1 chain with A37R, K41F, E60D, L79F, R80E
Regarding B17, the “Relative binding affinity (%)” value in assay [1] was 13900%; in assay [3], 102%.

B18: interleukin-2 analog 95 (ligand)
chain: B1 chain with A37R, K41F, V68G, L79F, R80E
In the case of B18, the “Relative binding affinity (%)” value in assay [1] was 17.1%; in assay [3], 10.7%.

B19: interleukin-2 analog 100 (ligand)
chain: B1 chain with A37R, K41F, L79F, R80E, V84Y
With B19, the results for the “Relative binding affinity (%)” value in assay [1] and in assay [3] were 2530% and 29.1%, respectively.

B20: interleukin-2 analog 98 (ligand)
chain: B1 chain with K41F, L79F, R80E, V85I
B20: the “Relative binding affinity (%)” value is 11100% in assay [1] and 7.7% in assay [3].

B21: interleukin-2 analog 105 (ligand)
chain: B1 chain with L17R, Q21E, A37R, K41F, E67D, L79F, R80E
For the molecule B21, the “Relative binding affinity (%)” value was found to be 26800% in assay [1] and 247% in assay [3].

B22: interleukin-2 analog 17 (ligand)
chain: B1 chain with V84L, V85I, V90T, F91I
With B22, the results for the “Relative binding affinity (%)” value in assay [1] and in assay [3] were 9.4% and 29.6%, respectively.

B23: interleukin-2 analog 52 (ligand)
chain: B1 chain with L79F, R80D, V84L, V85I
Consider B23, for which the “Relative binding affinity (%)” value in assay [1] amounted to 3820%. Further, the binding result in assay [2] is reported as “no binding”.

B24: interleukin-2 analog 103 (ligand)
chain: B1 chain with L17R, Q21E, K41F, L79F, R80E
On to B24, for which the “Relative binding affinity (%)” value in assay [1] was 13100%; in assay [3] it was 6.1%.

B25: interleukin-2 analog 101 (ligand)
chain: B1 chain with A37R, K41F, L79F, R80E, V84L, V85A
Regarding B25, the “Relative binding affinity (%)” value in assay [1] is 113%; in assay [3], 24.7%.

B26: interleukin-2 analog 86 (ligand)
chain: B1 chain with L17R, Q21E, A37R, K41F, L79F, R80E
Consider B26, for which the “Relative binding affinity (%)” value came out at 18700% in assay [1] and 71.1% in assay [3].
